Source: PMC11098746 (2024)
No end group written: not given here.

Tests used:
Assay in all cases: AVEXIS screen signal:noise (double-corrected)
ADP098 = molecular target: T1, ADP098
T1 chain: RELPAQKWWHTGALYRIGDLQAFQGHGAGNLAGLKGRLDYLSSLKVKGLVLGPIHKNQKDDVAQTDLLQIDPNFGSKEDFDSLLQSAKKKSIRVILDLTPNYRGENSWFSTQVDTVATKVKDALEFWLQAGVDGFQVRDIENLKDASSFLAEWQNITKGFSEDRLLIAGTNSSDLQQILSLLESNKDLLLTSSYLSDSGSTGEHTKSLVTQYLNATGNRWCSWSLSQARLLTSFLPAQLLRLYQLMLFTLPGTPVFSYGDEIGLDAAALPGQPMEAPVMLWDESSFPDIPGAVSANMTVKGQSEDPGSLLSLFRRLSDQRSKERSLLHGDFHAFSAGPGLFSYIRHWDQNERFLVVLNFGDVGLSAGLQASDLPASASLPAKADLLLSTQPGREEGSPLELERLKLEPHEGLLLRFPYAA

ADP376 = molecular target: ADP376
ADP353 = molecular target: T2, ADP353
T2 chain: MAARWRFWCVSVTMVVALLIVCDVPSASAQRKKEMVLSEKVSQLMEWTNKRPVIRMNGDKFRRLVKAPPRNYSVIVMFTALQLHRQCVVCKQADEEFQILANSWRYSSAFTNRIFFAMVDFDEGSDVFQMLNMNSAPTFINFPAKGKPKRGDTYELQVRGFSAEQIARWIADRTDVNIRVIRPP

ADP103 = molecular target: T3, ADP103
T3 chain: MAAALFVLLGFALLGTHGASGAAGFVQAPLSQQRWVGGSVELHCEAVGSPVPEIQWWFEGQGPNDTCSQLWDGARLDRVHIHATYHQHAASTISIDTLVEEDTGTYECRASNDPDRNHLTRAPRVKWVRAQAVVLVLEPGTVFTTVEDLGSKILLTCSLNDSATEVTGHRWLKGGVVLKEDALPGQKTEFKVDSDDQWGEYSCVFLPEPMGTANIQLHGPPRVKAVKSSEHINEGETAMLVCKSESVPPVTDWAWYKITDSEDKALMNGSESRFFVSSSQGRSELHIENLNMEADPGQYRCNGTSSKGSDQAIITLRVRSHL

ADP156 = molecular target: T4, ADP156
T4 chain: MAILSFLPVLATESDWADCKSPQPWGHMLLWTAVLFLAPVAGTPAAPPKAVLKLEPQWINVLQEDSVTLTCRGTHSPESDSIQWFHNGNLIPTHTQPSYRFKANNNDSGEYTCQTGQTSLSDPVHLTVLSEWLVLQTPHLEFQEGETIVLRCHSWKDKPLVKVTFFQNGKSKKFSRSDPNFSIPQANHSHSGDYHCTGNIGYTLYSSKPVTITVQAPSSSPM

ADP369 = molecular target: ADP369
ADP298 = molecular target: T5, ADP298
T5 chain: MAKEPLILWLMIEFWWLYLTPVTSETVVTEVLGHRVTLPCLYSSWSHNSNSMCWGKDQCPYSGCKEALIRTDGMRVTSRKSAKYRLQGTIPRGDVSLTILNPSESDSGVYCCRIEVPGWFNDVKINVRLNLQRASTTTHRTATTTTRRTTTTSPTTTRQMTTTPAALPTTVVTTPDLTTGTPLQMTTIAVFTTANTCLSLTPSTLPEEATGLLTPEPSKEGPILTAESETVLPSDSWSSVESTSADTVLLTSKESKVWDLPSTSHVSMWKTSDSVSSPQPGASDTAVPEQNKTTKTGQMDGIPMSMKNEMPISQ

ADP267 = molecular target: T6, ADP267
T6 chain: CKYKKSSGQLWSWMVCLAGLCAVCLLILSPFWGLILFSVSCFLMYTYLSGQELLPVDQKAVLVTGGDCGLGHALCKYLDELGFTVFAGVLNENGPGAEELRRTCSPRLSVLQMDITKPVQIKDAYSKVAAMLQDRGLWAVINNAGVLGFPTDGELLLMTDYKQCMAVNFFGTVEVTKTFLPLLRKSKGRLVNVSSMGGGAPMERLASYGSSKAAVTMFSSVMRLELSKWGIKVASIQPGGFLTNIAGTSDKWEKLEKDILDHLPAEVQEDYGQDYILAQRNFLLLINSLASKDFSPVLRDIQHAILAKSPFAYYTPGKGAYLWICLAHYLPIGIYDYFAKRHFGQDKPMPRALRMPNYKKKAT

ADP341 = molecular target: T7, ADP341
T7 chain: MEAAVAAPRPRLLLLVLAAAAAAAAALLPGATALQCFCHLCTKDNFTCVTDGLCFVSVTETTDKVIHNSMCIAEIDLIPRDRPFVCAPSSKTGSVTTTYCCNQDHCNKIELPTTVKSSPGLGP

B1: ADP169 (protein)
chain: LIRNSNTPQAFLIPELNNNEKNEFNNNEKNEMNNNLNNEFNNNEENCDIQKIAEEMMENLLNENDMYTNIMLSLQNRLSDDYLCSEPKYENICIHEKDKISLSFPCSNPKYEKLIHKFTFKKLCNSKAAFNNALLKSFIEEDEEQNTFSLMLKQFKILLTCVDDELKDIYKESIDLLVDLKTSITELTQKLWSGKMVNVLKKREFLITGILCELRNGNKAPLISKSLEFENLGILKMNNEELLNEAYNAFSDYYYFFPYFIQKLLEKGGMIERLIKIHENLAKYRTKDMVNKINAQSKGEVLNNEDILNKLNAYKHYTKHGATSFIQSREVKIVNQNVNNDDTTKNQQQNVNNNEKLNNNNNNNNNQQVNNNNNNNNQQVNNNNNNNNNQVNNNNNNNNNQVNNNNYNNNNQVNNNNNNNQQVNNNNNYNNQLNNNNFNNNLQVNKNDKHVPKNNHATATHTNNILYNPLYSINPEKPKDIIKLLKDLIKYLHIVKFENNEPTTNIDEEGIRKLLENSFFDLNDDILIVRLLLKPQTVILTVIQSFMLMTPSPSRDAKAYCKKALINDQLVPTNDANILSEENELVNNFATKYVLIYEKMKLQELKEMEESKLKMKYSKTNLAALQVTNPQNNKDKNDASNKNNNPNNAATPLIAVVTDLSGEKTEDIINNNVDIATLSVGVQNTFQGP
modifications: bait human Fc-tagged dimer; N-glycosylation sequons mutated in Plasmodium baits
- binding score (ADP098): 11.2

B2: ADP398 (protein)
chain: SNHIKSVNRCFIPFISEYIYKQKNRKNNIAYDSSNSHYNDKIIPCGNYNKQLKYKINFCRNLYFNNKNEYNRICSRNKLNFHNIQTDNTIYKPKKKYYEVGKVREKIKMYTLFKDDKINTLKCNEEESVTSETINKHDSSVKVKGRRKKNIASNENIMNPNNKAVSSINTNLADSSNNKNDNSLNSKKNDNTLNSKKNDNTLNSKKNDNTLNSKNNNNALNSKNNNNALNSKKSNNAYNDKHIDHIIPEGKNKINNNIDVKHNINNKLNEINEEPYEDTHNKEENSANKNDNDEKRKEENNNIARRYIKNDQMSYNNINTNSNEYDKNAATLDETYIGKTFEGYVYSVNKNAACIKLKNINKYGLLFKNKANLGDDIEDMNDFFEKDQPVHVKILGINTKKNIFYLGNIIKYNENIKLSKGEYSKGLITKVCDSYCFIKVLKNGATGYLHKSKLFCMNDKEKKNNDNQNYDNPNNDNPNYDNQNYDNQNYNNPNYDHPNYDNQNYDNQNYNNPNNDYSTSQLYNSDNLQMDFIYKLQFTKIFNIWDIIDVEILGTPQNDYKSNYILTIPRGSKTFKKILNYLNVLKENEDINNIQYKGDYIYSIDNNKNDNIIDSDINNHHINNKKKKKNLYDIQNNMNHAPFNKFHTEDEYLFNDHVQENVHTFYEKNKKYKITYDKENNHKMNKAYYLKKNKELPFNNKFKKIIKNIYDLPNTISLSMLSKTIKIPLASIKKYFIIHENKEYNSAYKINSEQIKRICQHFKIDCNVEQRDDNVVTKVNGATKDCQEKVFKNVAQDRLKEGEQERVIKVEAKIKNDEMVMQEQKDTKEEKHMDVQFIEEKDINVQHINVQDMDVQDMDVQDINVQDMDVQNINVQDINIQDMDVQNINNAITLNKATSCQTDESRDAPGGDQNEALDEKDSMEKSKEKKKKKGKSRKKNKDTNLALKSDSIQKSKTTLDDKKRNVVVTFIGHINHGKTSLFDYICKTNEQKKEYGLITQNIRAFKATVRNNFAFTLVDTPGHEAFMPMRSRGVKISDLSILVISGDEGIQEQTVECIKLIKEFNIKIIIAITKVDIPNVDVDRIINDLLYHDITTELNGGEIQVVECSIYKEESIDKLLDAIYLESEFLNLQTNPDKKHEQAQGVVLDSYIDKNGIVSINLLQNGVLNINDHFYTGSSYGKVKILKDHLNKNIKSAYPSDPIKIIGYNKNSVPVAGDKFYVVENEALAKEIAEHNKNKMLTMEINNFAYDQTNMNRYKDFIISRENKIGGSSGILGENNLKNDIDGNMARDDNMARDDNMASDDNMARDGNRANNDNIASDDNMANDYDKIKETKMYTNNKAFQKDDFLKIHLNNANENVINMDPSTHIGKNEIKTIYSNYIIKCDKQGSIEVLKNCMLKLQKEDSICKIKNKIIYADIGNVASSDIKYATSFNAAIIAFGVKLSNDIKGSKNSKGSKNHNNYPIIYSNVLYELIENVEKEMEKKLSKKPMGELKGTAQILKVFNIAKLGKVAGCIVKKGTISINSNIRILRNDKVIYMGKIISIKIVKEEKTQVTEADECGIGFDNFLDFEPNDIIEAYEN
modifications: bait human Fc-tagged dimer; N-glycosylation sequons mutated in Plasmodium baits
- binding score (ADP376): 10.1

B3: ADP198 (protein)
chain: ENVDTFKCNYAKKKKNGHHIKRHITNDEEKKKEYSFLMLGKENEEENKENKENNQNVNKDNNDNNNNEKKNEEQNHNNEKKQEEVINNNNNNVENKKEEENHNNDKKTDEQNHVNEKKQEGENNKHKKDDTIPPEKKINKENLLEYGTHDKEGHFIPSYKTLTDEILSTNNAMEKASSFLKIACSHVMKLIEFIPESKLSSQYIKVDNKNIYLKDIAVECQNIYFNLEKFSMTLIVFNSKINKFIYSQEK
modifications: bait human Fc-tagged dimer; N-glycosylation sequons mutated in Plasmodium baits
- binding score (ADP353): 21.4
- binding score (ADP103): 5.51

B4: ADP183 (protein)
chain: AEEHEITHKTYFDITIDDKPLGRIVFGLYGKVAPKTVENFVSICKGTVVDGKMLHYTNSIFHRIIPNFMAQGGDITNFNGAGGLSIYGKKFEDENFKVNHAKRGLLSMANAGKNTNGAQFFILFIPTPWLDGRHVVFGEVVEGLDKLVHIEAVGTDSGEPLKRVLVKESGELPL
modifications: bait human Fc-tagged dimer; N-glycosylation sequons mutated in Plasmodium baits
- binding score (ADP156): 5.67
- binding score (ADP369): 6.98

B5: ADP397 (protein)
chain: YLSSENQKKTIATVHNNARTNTLKKNNANNNNANDIFGLSPSEVPNLIDDEEEYEILEGVKNNADLTRSTNIDHPSPSSTMIDLDNIITEISKLKKKKLKKEMNNKLEQQTNQNNNAIHHNNENEINTFTQNIKTNSNELKNQDSSNSLISTNSNTMDELLLYSTNSEDNLDISFGELQLYENSDEDTSDYEYVNEDYSVNHIFSNDAEESFNILEDVENIALSSSNRYQYSPIGPYKKKHTKVFENFKMTRNYDEFLKLYNLKDSSDNQEEYYELLAGEPFKLNSYYYRDVKYENVKKYIFKEIYDNIQNIATENKIIVSKKEELFFYFIKSLLKNNFICLSYEEEENLLSESKLLLEAMISKKIQ
modifications: bait human Fc-tagged dimer; N-glycosylation sequons mutated in Plasmodium baits
- binding score (ADP298): 7.9
- binding score (ADP267): 21.9

Binder: MNEAKEEKTNMRNNHLSRVTIEILPSDEDNDIFDINDALLDELIGINNI (also: human Fc-tagged dimer) [ADP256]
- binding score (ADP341): 32.7
